Data reported in PMC6278910, “Reduced structural flexibility for an exonuclease deficient DNA polymerase III mutant†”.

Tests used:
[1] = molecular target: T1, Pol III alpha Y453A (clamp-binding enhanced);Pol III epsilon exonuclease (clamp-binding enhanced);Pol III … (Escherichia coli;Escherichia …, UniProt P10443;P03007;P0ABS8;P0A988 1-1160;1-243;1-76;1-366, Y453A;A921L;M923L|T183L;M185L;A186P;F187L|E41C|); assay: smFRET; dCTP, Mg2+; kon,fast 0.7±0.1, kon,slow 0.05±0.01, koff 0.40±0.02 s-1; 20 mM Hepes pH 7.6, 5 mM potassium glutamate, 3 mM magnesium acetate, 2 mM DTT, 2 mM Trolox, 25 nM enzyme, 10 uM dCTP; temperature not stated. PIFE with unlabeled Pol III alpha or alpha-epsilon at 25 nM showed no binding (DNA not specified, not listed); conditions: protein: recombinant;recombinant;recombinant;recombinant, (HisTrap purification), Cy5 maleimide at C41;, copies: 1;1;1;2, label: 5' biotin-TEG and Cy3 (amino dT-C6) on template, 7 nt upstream from primer 3' terminus, 5' overhang 14 nt on template, matched G:ddC terminus
[2] = molecular target: T2, Pol III alpha (clamp-binding enhanced; called wild type);Pol III epsilon exonuclease (clamp-binding … (Escherichia coli;Escherichia …, UniProt P10443;P03007;P0ABS8;P0A988 1-1160;1-243;1-76;1-366, A921L;M923L|T183L;M185L;A186P;F187L|E41C|); assay: smFRET; dCTP, Mg2+; kon,fast 0.8±0.1, kon,slow 0.030±0.010, koff 0.20±0.01 s-1 (25 nM enzyme); 20 mM Hepes pH 7.6, 5 mM potassium glutamate, 3 mM magnesium acetate, 2 mM DTT, 2 mM Trolox, 25 nM enzyme, 10 uM dCTP; temperature not stated. PIFE with unlabeled Pol III alpha or alpha-epsilon at 25 nM showed no binding (DNA not specified, not listed); conditions: protein: recombinant;recombinant;recombinant;recombinant, (HisTrap purification), Cy5 maleimide at C41;, copies: 1;1;1;2, label: 5' biotin-TEG and Cy3 (amino dT-C6) on template, 7 nt upstream from primer 3' terminus, 5' overhang 14 nt on template, matched G:ddC terminus
[3] = molecular target: T1, Pol III alpha Y453A (clamp-binding …); assay: smFRET; dCTP, Mg2+; kon,fast 1.5±0.3, kon,slow 0.04±0.01, koff 0.30±0.02 s-1; 20 mM Hepes pH 7.6, 5 mM potassium glutamate, 3 mM magnesium acetate, 2 mM DTT, 2 mM Trolox, 25 nM enzyme, 10 uM dCTP; temperature not stated. PIFE with unlabeled Pol III alpha or alpha-epsilon at 25 nM showed no binding (DNA not specified, not listed); conditions: protein: recombinant;recombinant;recombinant;recombinant, (HisTrap purification), Cy5 maleimide at C41;, copies: 1;1;1;2, label: 5' biotin-TEG and Cy3 (amino dT-C6) on template, 7 nt upstream from primer 3' terminus, 5' overhang 14 nt on template, terminal G:A mismatch
[4] = molecular target: T2, Pol III alpha (clamp-binding enhanced; …); assay: smFRET; dCTP, Mg2+; kon,fast 0.3±0.1, kon,slow 0.020±0.002, koff 0.20±0.01 s-1; 20 mM Hepes pH 7.6, 5 mM potassium glutamate, 3 mM magnesium acetate, 2 mM DTT, 2 mM Trolox, 25 nM enzyme, 10 uM dCTP; temperature not stated. PIFE with unlabeled Pol III alpha or alpha-epsilon at 25 nM showed no binding (DNA not specified, not listed); conditions: protein: recombinant;recombinant;recombinant;recombinant, (HisTrap purification), Cy5 maleimide at C41;, copies: 1;1;1;2, label: 5' biotin-TEG and Cy3 (amino dT-C6) on template, 7 nt upstream from primer 3' terminus, 5' overhang 14 nt on template, terminal G:A mismatch
[5] = molecular target: T1, Pol III alpha Y453A (clamp-binding …); assay: smFRET; non-hydrolyzable dCTP analog (stated for wild type), Mg2+; kon,fast 0.8±0.1, kon,slow 0.04±0.01, koff 0.30±0.01 s-1; 20 mM Hepes pH 7.6, 5 mM potassium glutamate, 3 mM magnesium acetate, 2 mM DTT, 2 mM Trolox, 25 nM enzyme, 10 uM dCTP; temperature not stated. PIFE with unlabeled Pol III alpha or alpha-epsilon at 25 nM showed no binding (DNA not specified, not listed); conditions: protein: recombinant;recombinant;recombinant;recombinant, (HisTrap purification), Cy5 maleimide at C41;, copies: 1;1;1;2, label: 5' biotin-TEG and Cy3 (amino dT-C6) on template, 7 nt upstream from primer 3' terminus, 5' overhang 14 nt on template, matched G:C terminus
[6] = molecular target: T2, Pol III alpha (clamp-binding enhanced; …); assay: smFRET; non-hydrolyzable dCTP analog, Mg2+; kon,fast 0.6±0.1, kon,slow 0.020±0.007, koff 0.20±0.01 s-1; 20 mM Hepes pH 7.6, 5 mM potassium glutamate, 3 mM magnesium acetate, 2 mM DTT, 2 mM Trolox, 25 nM enzyme, 10 uM dCTP; temperature not stated. PIFE with unlabeled Pol III alpha or alpha-epsilon at 25 nM showed no binding (DNA not specified, not listed); conditions: protein: recombinant;recombinant;recombinant;recombinant, (HisTrap purification), Cy5 maleimide at C41;, copies: 1;1;1;2, label: 5' biotin-TEG and Cy3 (amino dT-C6) on template, 7 nt upstream from primer 3' terminus, 5' overhang 14 nt on template, matched G:C terminus
[7] = molecular target: T1, Pol III alpha Y453A (clamp-binding …); assay: smFRET; dCTP, Mg2+; kon N.D., koff 0.30±0.02 s-1; 20 mM Hepes pH 7.6, 5 mM potassium glutamate, 3 mM magnesium acetate, 2 mM DTT, 2 mM Trolox, 25 nM enzyme, 10 uM dCTP; temperature not stated. PIFE with unlabeled Pol III alpha or alpha-epsilon at 25 nM showed no binding (DNA not specified, not listed); conditions: protein: recombinant;recombinant;recombinant;recombinant, (HisTrap purification), Cy5 maleimide at C41;, copies: 1;1;1;2, label: 5' biotin-TEG and Cy3 (amino dT-C6) on template, 7 nt upstream from primer 3' terminus, 5' overhang 14 nt on template, terminal double mismatch
[8] = molecular target: T2, Pol III alpha (clamp-binding enhanced; …); assay: as above; conditions: protein: recombinant;recombinant;recombinant;recombinant, (HisTrap purification), Cy5 maleimide at C41;, copies: 1;1;1;2, label: 5' biotin-TEG and Cy3 (amino dT-C6) on template, 7 nt upstream from primer 3' terminus, 5' overhang 14 nt on template, terminal double mismatch
[9] = molecular target: T2, Pol III alpha (clamp-binding enhanced; …); assay: smFRET; dCTP, Mg2+; kon,fast 0.6±0.1, kon,slow 0.010±0.003, koff 0.20±0.01 s-1; 20 mM Hepes pH 7.6, 5 mM potassium glutamate, 3 mM magnesium acetate, 2 mM DTT, 2 mM Trolox, 25 nM enzyme, 10 uM dCTP; temperature not stated. PIFE with unlabeled Pol III alpha or alpha-epsilon at 25 nM showed no binding (DNA not specified, not listed); conditions: protein: recombinant;recombinant;recombinant;recombinant, (HisTrap purification), Cy5 maleimide at C41;, copies: 1;1;1;2, label: 5' biotin-TEG and Cy3 (amino dT-C6) on template, 7 nt upstream from primer 3' terminus, 5' overhang 14 nt on template, terminal G:T mismatch
[10] = molecular target: T1, Pol III alpha Y453A (clamp-binding …); assay: smFRET; dCTP, Mg2+; kon,fast 0.6±0.1, kon,slow 0.05±0.01, koff 0.30±0.01 s-1; 20 mM Hepes pH 7.6, 5 mM potassium glutamate, 3 mM magnesium acetate, 2 mM DTT, 2 mM Trolox, 25 nM enzyme, 10 uM dCTP; temperature not stated. PIFE with unlabeled Pol III alpha or alpha-epsilon at 25 nM showed no binding (DNA not specified, not listed); conditions: protein: recombinant;recombinant;recombinant;recombinant, (HisTrap purification), Cy5 maleimide at C41;, copies: 1;1;1;2, label: 5' biotin-TEG and Cy3 (amino dT-C6) on template, 7 nt upstream from primer 3' terminus, 5' overhang 14 nt on template, terminal G:T mismatch

B1: G:ddC (dsDNA)
DNA 1: CATAATATCCTCAGGAGTCCTTCGTCCTAGTACTACTCA
DNA 2: TGAGTAGTACTAGGACGAAGGACTC
modifications: 3' dideoxycytosine on primer
binding result [1]: binds
binding result [2]: binds

B2: G:A (dsDNA)
DNA 1: B1 DNA 1
DNA 2: TGAGTAGTACTAGGACGAAGGACTA
modifications: phosphorothioate in primer (position not given)
binding result [3]: binds
binding result [4]: binds

B3: G:C (dsDNA)
DNA 1: B1 DNA 1
DNA 2: TGAGTAGTACTAGGACGAAGGACTC
binding result [5]: binds
binding result [6]: binds

B4: G:AA (dsDNA)
DNA 1: B1 DNA 1
DNA 2: TGAGTAGTACTAGGACGAAGGACAA
modifications: phosphorothioate not stated for this DNA
binding result [7]: binds
binding result [8]: binds

B5: G:T (dsDNA)
DNA 1: B1 DNA 1
DNA 2: TGAGTAGTACTAGGACGAAGGACTT
modifications: phosphorothioate in primer (position not given)
binding result [9]: binds
binding result [10]: binds
